# Results reported in US20130065259A1.
# System: SNAPtide (FITC/DABCYL), List Biological Laboratories product #521
substance,measurement,value
BoNT/A complex,"Km, non-bead based assay (free BoNT/A), SNAPtide conversion",typical Km=0.7 µM
same,"fold change of Km, immobilized against free enzyme",3.2-fold lower
